A word on the Kd: it is the free concentration of one partner at which half of the binding sites on the other are occupied at equilibrium, for simple one-to-one binding. Low readings indicate tighter binding, high ones weaker binding. One may read the koff as a measure of how fast the partners let go of each other. Lower therefore signals slow dissociation. Broadly, the kon is the second-order rate constant of association. Low values mean slow association, high ones fast association.

Common to all, as to experiment: BLI; ND-BLI: biotinylated nanodiscs (15 nM) with reconstituted nanopores loaded on streptavidin (SAX) sensors; WDR5 in solution, 1 to 18 μM; 300 mM KCl, 20 mM Tris-HCl, 1 mg/mL BSA, 1 mM TCEP, pH 7.5; 24 °C; empty nanodiscs as reference
Common to all, as to conditions: both partners purified

Test [1] addresses T1, WD40 repeat protein 5 truncation mutant lacking residues 1-22 (WDR5ΔN) (UniProt P61964 23-334).
Test [2] addresses T1, WD40 repeat protein 5 truncation mutant …. This is another data set of the same source.
The target is the same in test [3]. This is another data set of the same source.

Take MLNPHGAARAEVYLRGGSGGS (other) [(GGS)2 nanopore sensor without the peptide adaptor (MLL4Win - (GGS)2 tether - tFhuA)]: the Kd in test [1] was 260 ± 30 nM. Moreover, in test [2], the koff is 0.0049 s⁻¹ and the kon worked out at 19000 M⁻¹ s⁻¹.

In the case of MGDRGPEFELGTMLNPHGAARAEVYLRPAPAPA (other) [O(PA)3 nanopore sensor (adaptor O - MLL4Win - (PA)3 tether - tFhuA)], in test [3], the off-rate constant (koff) stood at 0.018 s⁻¹ and the kon was 6000 M⁻¹ s⁻¹. In addition, in test [1], binding was put at a Kd of 3010 ± 940 nM.

For MGDRGPEFELGTMLNPHGAARAEVYLRGGSGGS (other) [O(GGS)2 nanopore sensor (adaptor O - MLL4Win - (GGS)2 tether - tFhuA)], binding in test [1] was characterised by a dissociation constant (Kd) of 250 ± 50 nM. In test [2], this molecule registered a koff of 0.0046 s⁻¹ and a kon of 19000 M⁻¹ s⁻¹.

The values above are taken from PMC10278182, “Evaluation of Nanopore Sensor Design Using Electrical and Optical Analyses” (ACS Nano, 2023).
